According to patent US20220202913, “NOVEL OMNI-50 CRISPR NUCLEASE” (EmendoBio Inc., published 2022):

What was measured:
[1] = tested on: T1, OMNI-50 (Ezakiella peruensis strain M6.X2); experiment: cleavage_in_vitro; conditions: TXTL PAM depletion, PAM NGG; some activity with NAG and NGA; sgRNA V1 and V2
T1 sequence: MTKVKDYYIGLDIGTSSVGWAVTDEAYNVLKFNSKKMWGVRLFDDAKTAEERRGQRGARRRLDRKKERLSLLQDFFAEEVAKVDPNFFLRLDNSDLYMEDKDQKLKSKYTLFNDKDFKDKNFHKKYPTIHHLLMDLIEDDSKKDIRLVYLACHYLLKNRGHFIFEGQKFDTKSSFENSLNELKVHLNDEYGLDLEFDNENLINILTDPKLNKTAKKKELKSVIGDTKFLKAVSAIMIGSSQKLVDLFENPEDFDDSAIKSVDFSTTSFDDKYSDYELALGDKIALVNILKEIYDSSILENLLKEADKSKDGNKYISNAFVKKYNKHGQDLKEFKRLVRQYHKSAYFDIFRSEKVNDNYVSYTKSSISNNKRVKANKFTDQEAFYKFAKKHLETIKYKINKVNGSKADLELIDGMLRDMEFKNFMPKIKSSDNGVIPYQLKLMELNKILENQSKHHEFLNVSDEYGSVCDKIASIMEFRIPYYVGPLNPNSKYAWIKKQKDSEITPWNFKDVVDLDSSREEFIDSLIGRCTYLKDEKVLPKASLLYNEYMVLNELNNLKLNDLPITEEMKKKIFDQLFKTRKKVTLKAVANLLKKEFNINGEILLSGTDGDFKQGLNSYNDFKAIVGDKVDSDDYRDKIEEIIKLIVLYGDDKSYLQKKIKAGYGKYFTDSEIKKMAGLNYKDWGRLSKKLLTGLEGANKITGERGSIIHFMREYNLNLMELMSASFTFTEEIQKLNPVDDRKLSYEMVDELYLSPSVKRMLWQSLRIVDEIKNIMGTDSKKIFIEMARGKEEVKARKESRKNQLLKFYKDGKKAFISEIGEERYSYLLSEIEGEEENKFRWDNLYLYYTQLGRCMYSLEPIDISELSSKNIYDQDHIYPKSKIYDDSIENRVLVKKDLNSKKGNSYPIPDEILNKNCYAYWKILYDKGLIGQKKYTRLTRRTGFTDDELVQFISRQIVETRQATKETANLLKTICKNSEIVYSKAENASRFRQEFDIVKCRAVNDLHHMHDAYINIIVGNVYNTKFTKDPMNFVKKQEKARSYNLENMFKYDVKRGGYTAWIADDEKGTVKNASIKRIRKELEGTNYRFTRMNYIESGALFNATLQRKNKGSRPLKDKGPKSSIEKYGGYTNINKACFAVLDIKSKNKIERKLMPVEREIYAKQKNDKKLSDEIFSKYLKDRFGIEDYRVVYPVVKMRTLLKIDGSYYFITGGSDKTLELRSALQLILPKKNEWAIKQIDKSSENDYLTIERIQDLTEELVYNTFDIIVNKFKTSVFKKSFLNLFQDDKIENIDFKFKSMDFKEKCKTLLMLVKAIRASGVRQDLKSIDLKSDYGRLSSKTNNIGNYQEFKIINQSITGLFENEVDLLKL

OMNI-50 = molecular target: T2, OMNI-50 (Ezakiella peruensis strain M6.X2); experiment: cell_activity; PAM NGG; RNP in U2OS; conditions: tags: SV40 NLS N-terminal, HA-SV40 NLS-8xHis C-terminal (pET9a)
T2 chain: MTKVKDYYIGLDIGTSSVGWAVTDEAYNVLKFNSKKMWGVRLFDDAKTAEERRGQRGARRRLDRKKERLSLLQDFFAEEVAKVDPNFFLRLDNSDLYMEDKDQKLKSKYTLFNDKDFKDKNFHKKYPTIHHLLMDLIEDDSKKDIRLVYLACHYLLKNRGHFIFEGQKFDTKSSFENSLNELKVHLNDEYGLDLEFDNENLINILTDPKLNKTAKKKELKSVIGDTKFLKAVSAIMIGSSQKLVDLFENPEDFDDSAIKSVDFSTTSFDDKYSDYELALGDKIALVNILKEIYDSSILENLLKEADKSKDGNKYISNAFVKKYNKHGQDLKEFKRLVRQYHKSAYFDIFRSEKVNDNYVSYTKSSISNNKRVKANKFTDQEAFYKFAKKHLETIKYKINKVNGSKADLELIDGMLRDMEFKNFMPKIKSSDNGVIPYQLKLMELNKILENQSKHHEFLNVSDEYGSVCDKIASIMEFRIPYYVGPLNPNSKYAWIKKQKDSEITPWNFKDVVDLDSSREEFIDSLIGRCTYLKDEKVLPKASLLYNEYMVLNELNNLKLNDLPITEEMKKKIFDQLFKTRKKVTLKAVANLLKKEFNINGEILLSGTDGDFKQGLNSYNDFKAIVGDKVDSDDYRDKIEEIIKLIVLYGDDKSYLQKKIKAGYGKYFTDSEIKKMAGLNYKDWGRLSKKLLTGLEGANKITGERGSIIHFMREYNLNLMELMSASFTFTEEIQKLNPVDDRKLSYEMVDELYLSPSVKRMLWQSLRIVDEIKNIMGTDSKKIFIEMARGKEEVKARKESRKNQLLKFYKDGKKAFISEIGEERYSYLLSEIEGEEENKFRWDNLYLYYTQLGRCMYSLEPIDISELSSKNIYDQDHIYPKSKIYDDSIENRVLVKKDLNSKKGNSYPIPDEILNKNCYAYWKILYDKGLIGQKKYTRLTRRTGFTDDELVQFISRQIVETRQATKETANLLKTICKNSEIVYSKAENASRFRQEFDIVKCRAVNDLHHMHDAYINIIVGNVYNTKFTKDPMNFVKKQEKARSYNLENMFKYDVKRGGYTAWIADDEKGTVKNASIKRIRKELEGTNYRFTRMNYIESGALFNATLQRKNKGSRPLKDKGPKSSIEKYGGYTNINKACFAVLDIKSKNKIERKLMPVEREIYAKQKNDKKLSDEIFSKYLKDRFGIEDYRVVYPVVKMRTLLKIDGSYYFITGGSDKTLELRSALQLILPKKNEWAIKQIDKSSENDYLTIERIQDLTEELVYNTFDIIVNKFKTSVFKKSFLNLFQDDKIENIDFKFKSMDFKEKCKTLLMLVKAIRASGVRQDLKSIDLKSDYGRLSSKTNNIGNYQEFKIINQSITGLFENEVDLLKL
Protocol: FIG. 5A-FIG. 5D: OMNI-50 activity Assay as RNP. OMNI-50 nuclease was over-expressed and purified. The purified protein was complexed with synthetic sgRNA to form RNPs. For the in-vitro assays (FIG. 5A and FIG. 5B) RNPs were incubated with a linear DNA template containing the corresponding target and PAM sequences (listed in Table 5). Activity was verified by cleavage of the linear template. For the in-vivo assays (FIG. 5C and FIG. 5D), U2OS cells were electroporated with RNPs and activity was determined by measurement of indel frequency by NGS. FIG. 5A: Activity assay of OMNI-50 RNP with different spacer lengths (17-23 bps) of guide 35 (Table 10). FIG. 5B: Decreasing amounts of RNPs (4 pmol, 2 pmol, 1.2 pmol, 0.6 pmol and 0.2 pmol) with spacer lengths 20-23 nts were incubated with 100 ng DNA target template. FIG. 5C: Activity assay for OMNI-50 as RNP in U2OS cells: RNPs with spacer lengths 17-23 bps were electroporated into U2OS cell line and editing levels (indels) measured by NGS. FIG. 5D: Activity assay for OMNI-50 as RNP in U2OS cells: RNPs with ELANE g35 sgRNA V1-V4 were electroporated into U2OS cell line and editing levels (indels) measured by NGS.
Spacer length optimization was also performed in a mammalian cell context. RNPs were assembled by mixing 100 uM nuclease with 120 uM of synthetic guide with different spacer lengths (17-23 nt, Table 5) and 100 uM Cas9 electroporation enhancer (IDT). After 10 minutes of incubation at room temperature, the RNP complexes were mixed with 200,000 pre-washed U2OS, iPSC, or HSC cells and electroporated using Lonza SE or P3 Cell Line 4D-Nucleofector™ X Kit with the DN100 or CA137 program, respectively, according to the manufacture's protocol. At 72 h cells were lysed and their genomic DNA was used in a PCR reaction to amplify the corresponding putative genomic targets. Amplicons were subjected to NGS and the resulting sequences were then used to calculate the percentage of editing events.

GGAAGAGCAGAGCCUUGGUCUCGUUUGAGAGUUAUGUAAGAAAUUACAUGACGAGUUCAAAUAAAAAUUUAUUCAAACCGCCUAUUUAUAGGCCGCAGAUGUUCUGCAUUAUGCUUGCUAUUGCAAGCUUUUUU / GGAAGAGCAGAGCCTTGGTCTCNNNNNNNN / NNNNNNNNGAGACCAAGGCTCTGCTCTTCC [T2 sgRNA V2 ; T2 protospacer 8N PAM library]
activity (1-depletion score) [1]: 0.98

B1: ELANE g35 sgRNA V2 22 nt spacer ; ELANE g35 on-target (ssRNA ; dsDNA)
RNA: GCAGUCCGGGCUGGGAGCGGGUGUUUGAGAGUUAUGUAAGAAAUUACAUGACGAGUUCAAAUAAAAAUUUAUUCAAACCGCCUAUUUAUAGGCCGCAGAUGUUCUGCAUUAUGCUUGCUAUUGCAAGCUUUUUU
DNA 1: CTGTTGCTGCAGTCCGGGCTGGGAGCGGGTGGGGAGCAGAGGG
DNA 2: CCCTCTGCTCCCCACCCGCTCCCAGCCCGGACTGCAGCAACAG
modifications: three 2'-OMe 3'-PS at 5' and 3' ends
activity (OMNI-50): 90.9 % indels

B2: ELANE g35 sgRNA V2 17 nt spacer ; ELANE g35 on-target (ssRNA ; dsDNA)
RNA: CCGGGCUGGGAGCGGGUGUUUGAGAGUUAUGUAAGAAAUUACAUGACGAGUUCAAAUAAAAAUUUAUUCAAACCGCCUAUUUAUAGGCCGCAGAUGUUCUGCAUUAUGCUUGCUAUUGCAAGCUUUUUU
DNA 1: CTGTTGCTGCAGTCCGGGCTGGGAGCGGGTGGGGAGCAGAGGG
DNA 2: CCCTCTGCTCCCCACCCGCTCCCAGCCCGGACTGCAGCAACAG
modifications: three 2'-OMe 3'-PS at 5' and 3' ends
activity (OMNI-50): 0.54 % indels

B3: ELANE g35 sgRNA V2 20 nt spacer ; ELANE g35 on-target (ssRNA ; dsDNA)
RNA: AGUCCGGGCUGGGAGCGGGUGUUUGAGAGUUAUGUAAGAAAUUACAUGACGAGUUCAAAUAAAAAUUUAUUCAAACCGCCUAUUUAUAGGCCGCAGAUGUUCUGCAUUAUGCUUGCUAUUGCAAGCUUUUUU
DNA 1: CTGTTGCTGCAGTCCGGGCTGGGAGCGGGTGGGGAGCAGAGGG
DNA 2: CCCTCTGCTCCCCACCCGCTCCCAGCCCGGACTGCAGCAACAG
modifications: three 2'-OMe 3'-PS at 5' and 3' ends
activity (OMNI-50): 43.8 % indels
